Data reported in the nanobody polyreactivity screen of Harvey et al. (2022).

Assay: yeast display, Sf9 membrane polyspecificity reagent, FACS + sequencing; frameworks hold sequencing errors
Summary of the method: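 After 36–48 hours of galactose induction, yeast (Saccharomyces cerevisiae BJ5465) displaying a synthetic nanobody library were stained at 4 °C for 1 hour with 10% biotinylated, detergent-solubilized Sf9 membrane reagent. Streptavidin microbeads enriched the stained cells before FACS sorting into low and high (top ~1%) gates on anti-HA and streptavidin fluorescence. Each clone's polyreactivity label reflects its gate of origin.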

Sequence	polyreactivity (PSR sort gate)
QVQLVESGGGLVQAGGSLRLSCAASGFIFGDYAMGWYRQAPGKERELVAAISRSGGRTYYADSVKGRFTISRDNAKNTVYLQMNSLKPEDTAVYYCAKSSLNIYEYWGQGTQVTVSS	high polyreactivity
QVQLVESGGGLVQAVGSLRLSCAASGSTFPRYAMRWYRQAPGKERELVAAISRSGGSTYYADSVKGRFTISRDNATNTVYLQMNSLKPEDTAVYYCAARDDRGSYKYDYWRQGTQVTVSS	high polyreactivity
QVQLVESGGGLVQAGGSLRLNCAASGSIFDDYAMGWYRQAPGKERELVAAINIRTGSTYYADSEKGRFTISRDNAKNTVYLQMNSLKPEDTAVYYCNSVVRGFVRHLDYWGQGTQVTVSS	low polyreactivity
QVQLVESGGGLVQAGGSLRLSRAASGRTFYGYAMGWYRQAPGKESELVARIRSGGSTNYADSVKGRFTISRDNAKNTVYLLMNSLIPEDTAVFYCAARPGAAGYKYYYWGQGTQVTVSS	high polyreactivity
QVQIVESGGGLVQAGGSLRLSCAASGRISVFNAMGWYRQAPGKERELVAAITSGGSTNYADSVKGRFTISRDNAKNTVYLQMNSLKPEDTAVYYCNADVYHSHEPHYDYWGQGTQVTVSS	low polyreactivity
QVQLVEAGGGFYQPGGSLRLSCAASGRTFSYYASGWYRQAPGKERELVAAITDSGDSTYYADSVKGRFTISRDNANNTVYLQMKSLKPEDTAVYDCAATTYSWYDYWGQGTQVTVSS	high polyreactivity
QVQLVESGGGLVQAGGSLRLSCAASGRIFSRYAMVWYRQAPGKERELVAAINKSGGSTYYADSVKGRFTISRDNAKNTVYLQMNSLKPEDTAVYYCNAVYYWYKGDYWGQGTQVTVSS	high polyreactivity
QVQLEESGGGLVQAGGSLRLSCAASGNIFESYGMGWYRQAPGKERELVATINTSSGSTYYADSVKGRFTISRDNAKNTVYLQMNSLKPEDTAVYYCAAEWYPYPWGYGYWGQGTQVTVSS	low polyreactivity
QVQLVESGGGLVQAGGSLRVSCAASGLNFYGNAMGWYRQAPGKERELVAAISWSGGNTSYADSVKGRFTISRDNAKNTVYLQMNSLKPDDTAVYYCNADSLPSVERYGYWGQGTQVTVSS	low polyreactivity
QVQLVESGGGLVQAGGSLRLSCAASGSIFLFNAMGWYRQAPGKERELVAAINRDDSTYYADSVKGRFTISRDNAKNTVYLQMNSLKPEDTAVYYCAARQRLSWKTEYYWGQGTQVTVSS	low polyreactivity
QVQLVESGGGLVQAGGSLRLSCAASRSIFGTYAMGWYRQAPGKERELVAAISYSGGSTYYADSVKGRFTISRDNGKYTVYLQMNSLKPEDTAVYYCNKSRFYWGYYWGQGTQVTVSS	low polyreactivity
QVQLVESGGGLVQAGGSLRLSCAASGIIFPGYAMGWYRQAPGKERELVAAISSGGDTYYADSVKGRFTISRDNAKNTVYLQMNSLKPEDTAVYYCAAEYGLYAPGYYYWGQGTQVTVSS	low polyreactivity
QVQRVESGGGLVQAGGSLRLSCAASGRTFAGYAMGWYRQAPGKERELVAAITTGGSTKYADSVKGRLTISRDNAKNTVFLQRTSLKPEDTAVYYCNARKRVYSGNTLMYYWGQGTQVTVSS	high polyreactivity
QVQLVESGGGLVQAGGSLRLSCAASGGIFIGYAMGWYRQAPGKERELVAAISYSGGSTYYADSVKGRFTISRDNAKNTVYLQMNSLKPEDTAVYYCAAQVDRKYRWFNSWGQGTQVTVSS	high polyreactivity
QVQLVESGGGLVQAGGSLRLSCAASGSIFNYSAMGWYRQARGKERELVAGITTSGGSTYYADSVKGRFTISRDNAKNTVYLQMNSLKPEDTAVYYCAAYDYISSTYFLDDYWGQGTQVTVSS	low polyreactivity
QVQLVESGGGLVQAGGSLRLSCAASGRIFTANVMGWYRQAPGKERELVAAIDYSGGSTYYADSVKGRFTISRDNAKNTVYLQMNSLKPEDTAVYYCNRDDYADYYHLEYDYWGQGTQVTVSS	low polyreactivity
QVQLVESGGGLVQAGGSLRLSCAASGITFGGNAMGWYRQAPGKEMELVAAISWNGGRTYYADSVKGRFTISRDNAKNTVYLQMNSLKPEDTAVYYCNTPVFSKSSRKYYYWGQGTQVTVSS	high polyreactivity
QVQLVESGGGLVQAGGSLRLSCAASGFTFRSNAMGWYRQAPGKERELVAAISYSGGDTYYADSVKGRFTISRDNAKNTVFLQMNSLKPEDTAVYYCAADDPASPLGEYWGQGTQVTVSS	low polyreactivity
QVQLVESGGGLVQAGGSLRLSCAASGSIFGYYAMGWYRKAPGKERELVAAISWSDGSTYYADSVKGRFTISRDNAKNTVYLQMNSLNPEDTAVYYCAARFTPYITSDDGHYDYWGQGTQVTVSS	low polyreactivity
QVQLVESGGGLVQAGGSLRLSCAASGSIFYPYAMGWYRQAPGKERELVADINSDGSTTYADSVKGRFTISRDNAKNTVYLQMNSLKPEDTAVYYCAVDVSVNWPLLERYEYWGQGTQVTVSS	low polyreactivity
QVHLVESGGGLVQAGGSLRLSCAASGSILLWNTMGWYRQAPGKERELVADIRLSASSTYYADSVKGRFTISRDNAKNTVYLQMNSLKPEDTAVYYCAADEYTPEYCQGYDYWGQGTQVTVSS	low polyreactivity
QVQLVESGGGLVQAGGSLRLSCAASGSIISSYAMGWYRKAPGKETELLAVITRSGGSTYYADSVKGRFTISRDNAKNTVYLQMKSLKPVDTAVYYCNAQPTRIKLPSYDYWGQGTQVTVST	high polyreactivity

Sequence	polyreactivity (PSR sort gate)
QVQLVESGGGLVQAGGSLRLSCAASGIIFTINAMGWYRQAPGKERELVARISRSVGSTTYADSVKGRFTISRDNAKNTVYLQMNSLKPEDTAVYYCAAQPYGYSYHYHRPWGLDYWGQGTQVTVSS	low polyreactivity
QVQLVESGGGLVQAGGSLRLSCAASGTTYSINAMGWYRQATGKERELVAAISSGGSTYYADSVKGRFTISRDNAKYTVYLQMNSLIPEDTAVYYCAVDPSWTYWSTYRYDYWGQGTQVTVSS	low polyreactivity
QVQVVESGAGEVQAGGSLRLSCAASGSIFPFNAMGWYRQAPGKERELVAAISVNGGSTYYADSVKGRFTISRDNAKNTVYIQMNSLKPEDTAVYYCNTGGTFLDWVRRPFGFGYWGQGTQVTVSS	low polyreactivity
QVQLVESGGGLVQAGGSLRLSSAGSGSTFIIYAMGWYRQAPGKERELVAAISWSGGSTYYADSVKGRFTISRDNAKNTVYLQMNSLKPEDTEVYYWAVVYRTRWSDYDYWGQGTQVTVSS	low polyreactivity
QVQLVESGGGLVQAGGSLRLSCAASGFTLADNPMGWYRQAPGKERELVAAITSGASTYYADSVKGRFTISRDNAKNTVYLQMNTLKPEDTAVYYCAALYYWRSGYDAWGQGTQVTVSS	low polyreactivity
QVQLVESGGGLVQAGGSLRLSCAASGNILATNCMGWYRQAPGMERELVAAITFSGDTTYYADSVKGRFTISRDNAKNTVYLQMNSLKPEDTAVYYCNAVSFIVNGGYDGDYWGQGTQVTVSS	low polyreactivity
QVQLVESGGGLVQAGGSLRLSCAASGSIFFYYAMGWYRQAPGKERELVATITSGGSTSYADSVKGRFTISRDNAKNTVFLQMNSLKPEDTAVYYCAARKVTKSTYNYWGQGTQVTVSS	low polyreactivity
QVQLVESGGGLVQAGGSLRLSWAASGSTFNSYAMGCYRQAPWKERELVAAITWSGGSTFYADSVKGRVTISRDNAKNTVYLQMNSLKPEDTSVYYCNADGPYYPPYPSTYVDGDSWGQGTQVTVSS	low polyreactivity
QVQLVESGGGLVQAGGSLRLSCAASGSTFDSNVMGWYRQAPGKERELVAAINYSGVRTYYADSVKGRFTISRDNAKNTVYLQMNSLKPEDTAVYYCNARLFSYRYPEGGYWGQGTQVTVSS	high polyreactivity
QVQLQECGGGLVQEGGSLRLSCAASGTYSNSVKWLYCQAPGKEREFVATIGVGGSTNYADSVKGRFTISRDIAKNSVYLQMNSLKPDDTAVYHCSAYGAASNFHYYRGQGTQVTVSS	low polyreactivity
QVQLVESGGGLVQAGVSLRLSCAASGSIFQTYDMGWYRQAPGKERELVAAITGSGDSTYYADSVKGRFTISRDNAKNTVYLQMNSLKPEDTAVYYCNADGPSTPWVEYGYWGQGTQVTVSS	low polyreactivity
QVQLVESGGGLVQAGGSLRLSCSASGSIYSYYTMGSYIQAPGKERELVAAITGSGGRTYYADSVKGRFTISRDNAKNTVYLQMNSLKQEDTAVYYCNADRHYVPYYSRPRYIPYDYWGQGTQVTVSS	high polyreactivity
QVQLVESGGGLVQAGGSLRLSCAASGLIFDSYVMGWYRQAPGKERELVAVISGSGGSTYYADSVKGRFTISRDNAKNTVYLQMNSLKPEDTAVYYCAAQYSAGQYYGYGYWGQGTQVTVSS	high polyreactivity
QVQLLESGGGLVQAGGSLRLSCAASGRIFWNNAMGWYRQAPGKERELVAVISTRGGRTYYADSVKGRFTISRDNANNTVNLQMNSLKPEDTAVYYCAAEFLNKAVGGVTSIYDSWGQGTQVTVSS	low polyreactivity
QDQLEESGGGLVQAGGSLRLSCAASGRNFYGYVMGWYRQAPGKERELVAAISSGGSTYYADSVKGRFTISRDNAKNTVYLQMNSLKPEDTAVYYCNADWKSYRGPKFDYWGQGTQVTVSS	low polyreactivity
QVQLVESGGGLVQAGGSLRLSCAASGSTSQLYAMGRYRQAPGKERELVAAITVSGDSTYYADSVKGRFTISRDNAKNTVYLQMNSLKPEDTAVYYCAADVMVQTVPGGYDDWGQGTQVTVSS	low polyreactivity
QDQQVESGGGLVQAGGSLRLSSAASGRTFGTYALGWYRQARGNERELVAAITKSGGSTYYADSVKGRFIISRDNAKNTVYLQMNSLKPEDTAVYYCAAAVPRYRVYYWGQGTQVTVSS	high polyreactivity
QVQLIESGGGLVQAGGSLRLSCAASGYTFGAYAMGWYRQAPGKERELVAGITFIGGSTYYADSVKGRFTISRDNAKNTVYLQMNSLKPEDTAVYYCAAPIAFGYRGTVAKYGYWGQGTQVTVSS	low polyreactivity
QVQLVESGGGLVQAGGSLRLSCAASGRIFGIYAMGWYRQAPGKERELVSRITGGGSTNYADSVKGRFTISRDNAKNTVYLQMNSLKPEDTAVYYCAADSYLSVYDPYGYWGQGTQVTVSS	low polyreactivity
QVQLVESGGGLVQAGGSLRLSCAASGFIFYYNTMGWYRQAPGKERELVASITWSGDTTYYADSVKGRFSISRDNAKNTVYLQMNSLIPEDTAVYYCAAVHYYPYRRYDYWGQGTQVTVSS	low polyreactivity
QVQLVESWGGLVQAGGRLRLSCAASGIIFHRNAMGWYRQAPGKQRELVAAISERGGSTYYADSVKGRFTISRDNAKNTVYLQMNSLKPEDTAVYYCIADGFYRGGYWGQGTQVTVSS	low polyreactivity
